Laboratory results from the Immune Epitope Database (IEDB).

Key:
[1] = molecular target: HLA-A*32:07; assay: IEDB peptide-MHC binding, purified MHC/competitive/fluorescence; filed as Kd, often an IC50 or EC50 that approximates it; ≥ and ≤ were set here for values at or beyond the usual limits of such assays
[2] = molecular target: HLA-B*15:42; assay: as above
[3] = molecular target: HLA-B*39:01; assay: as above; conditions: source organism: Escherichia coli B171
[4] = molecular target: HLA-B*40:01; assay: as above; conditions: source organism: Escherichia coli B171
[5] = molecular target: HLA-B*40:13; assay: as above; conditions: source organism: Escherichia coli B171
[6] = molecular target: HLA-B*45:06; assay: as above
[7] = molecular target: HLA-B*83:01; assay: as above
[8] = molecular target: HLA-B*15:01; assay: IEDB peptide-MHC binding, purified MHC/direct/fluorescence; filed as Kd, often an IC50 or EC50 that approximates it; ≥ and ≤ were set here for values at or beyond the usual limits of such assays
[9] = molecular target: HLA-B*35:01; assay: as above; conditions: source organism: Salmonella enterica subsp. enterica serovar Typhi
[10] = molecular target: HLA-B*15:17; assay: IEDB peptide-MHC binding, purified MHC/competitive/fluorescence; filed as Kd, often an IC50 or EC50 that approximates it; ≥ and ≤ were set here for values at or beyond the usual limits of such assays
[11] = molecular target: HLA-B*44:02; assay: as above; conditions: source organism: Salmonella enterica subsp. enterica serovar Typhi
[12] = molecular target: HLA-B*57:01; assay: as above; conditions: source organism: Salmonella enterica subsp. enterica serovar Typhi
[13] = molecular target: HLA-B*58:01; assay: IEDB peptide-MHC binding, purified MHC/direct/fluorescence; filed as Kd, often an IC50 or EC50 that approximates it; ≥ and ≤ were set here for values at or beyond the usual limits of such assays
[14] = molecular target: HLA-A*32:15; assay: IEDB peptide-MHC binding, purified MHC/competitive/fluorescence; filed as Kd, often an IC50 or EC50 that approximates it; ≥ and ≤ were set here for values at or beyond the usual limits of such assays; conditions: source organism: Mycobacterium tuberculosis variant bovis BCG str. Pasteur 1173P2
[15] = molecular target: HLA-A*68:23; assay: as above; conditions: source organism: Mycobacterium tuberculosis variant bovis BCG str. Pasteur 1173P2
[16] = molecular target: HLA-B*35:01; assay: as above; conditions: source organism: Mycobacterium tuberculosis variant bovis BCG str. Pasteur 1173P2
[17] = molecular target: HLA-B*51:01; assay: as above; conditions: source organism: Mycobacterium tuberculosis variant bovis BCG str. Pasteur 1173P2
[18] = molecular target: HLA-A*02:01; assay: IEDB peptide-MHC binding, purified MHC/competitive/radioactivity; ≥ and ≤ were set here for values at or beyond the usual limits of such assays; conditions: source organism: Toxoplasma gondii
[19] = molecular target: HLA-A*11:01; assay: as above; conditions: source organism: Toxoplasma gondii
[20] = molecular target: HLA-B*07:02; assay: as above; conditions: source organism: Toxoplasma gondii
[21] = molecular target: HLA-A*01:01; assay: IEDB peptide-MHC binding, purified MHC/direct/fluorescence; filed as Kd, often an IC50 or EC50 that approximates it; ≥ and ≤ were set here for values at or beyond the usual limits of such assays; conditions: source organism: Camelpox virus M-96
[22] = molecular target: HLA-A*02:01; assay: as above; conditions: source organism: Camelpox virus M-96
[23] = molecular target: HLA-A*26:01; assay: as above; conditions: source organism: Variola virus
[24] = molecular target: HLA-A*31:01; assay: as above; conditions: source organism: Camelpox virus M-96
[25] = molecular target: HLA-A*80:01; assay: as above; conditions: source organism: Camelpox virus M-96
[26] = molecular target: HLA-B*15:09; assay: as above; conditions: source organism: Variola virus
[27] = molecular target: HLA-B*27:05; assay: as above; conditions: source organism: Camelpox virus M-96
[28] = molecular target: HLA-B*39:01; assay: as above; conditions: source organism: Variola virus
[29] = molecular target: HLA-B*40:01; assay: as above; conditions: source organism: Camelpox virus M-96
[30] = molecular target: HLA-B*46:01; assay: as above
[31] = molecular target: HLA-B*48:01; assay: as above; conditions: source organism: Camelpox virus M-96
[32] = molecular target: HLA-B*57:01; assay: as above; conditions: source organism: Camelpox virus M-96
[33] = molecular target: HLA-A*03:01; assay: IEDB peptide-MHC binding, purified MHC/competitive/fluorescence; filed as Kd, often an IC50 or EC50 that approximates it; ≥ and ≤ were set here for values at or beyond the usual limits of such assays; conditions: source organism: Taterapox virus
[34] = molecular target: HLA-A*11:01; assay: as above; conditions: source organism: Taterapox virus
[35] = molecular target: HLA-A*69:01; assay: as above; conditions: source organism: Taterapox virus
[36] = molecular target: HLA-B*15:02; assay: IEDB peptide-MHC binding, purified MHC/direct/fluorescence; filed as Kd, often an IC50 or EC50 that approximates it; ≥ and ≤ were set here for values at or beyond the usual limits of such assays; conditions: source organism: Convict Creek 107 virus
[37] = source organism: Escherichia coli B171
[38] = source organism: Salmonella enterica subsp. enterica serovar Typhi
[39] = source organism: Mycobacterium tuberculosis variant bovis BCG str. Pasteur 1173P2
[40] = source organism: Camelpox virus M-96
[41] = source organism: Convict Creek 107 virus

HELSLFWPL gave a Kd [1, 37] of 58.2 nM, a Kd [2, 37] of at least 5000 nM and a Kd [3] of 0.2 nM. For the same sequence, the Kd [4] was 2.5 nM, the Kd [5] was 30.2 nM and the Kd [6, 37] was at least 5000 nM. It also gave a Kd [7, 37] of at least 5000 nM.
IVLLCYGGW was tested, and the Kd [8, 38] was 6180 nM, the Kd [9] was 2530 nM and the Kd [10, 38] was 175 nM. The Kd [11] was at least 20000 nM and the Kd [12] was 498 nM.
MTMITPPTF was tested, and the Kd ([13]; source organism: Mycobacterium tuberculosis) was 51.3 nM, the Kd [1, 39] was 9.3 nM and the Kd [14] was 19.2 nM. For the same sequence, the Kd [15] was 4.4 nM, the Kd [2, 39] was at least 5000 nM and the Kd [16] was 111 nM. It also gave a Kd [6, 39] of at least 5000 nM, a Kd [17] of at least 20000 nM and a Kd [7, 39] of at least 5000 nM.
In the case of AVVSLLRLLK, the IC50 [18] is reported as 11300 nM, the IC50 [19] is reported as 6.5 nM and the IC50 [20] is reported as at least 50000 nM.
For NTDAFSREY, the Kd [21] was 7 nM, the Kd [22] was at least 20000 nM and the Kd [23] was 984 nM. For the same sequence, the Kd [24] was at least 20000 nM, the Kd [25] was 567 nM and the Kd [8, 40] was at least 20000 nM. For the same sequence, the Kd [26] was at least 20000 nM, the Kd [27] was at least 20000 nM and the Kd [28] was at least 20000 nM. For the same sequence, the Kd [29] was at least 20000 nM, the Kd [30, 40] was at least 20000 nM and the Kd [31] was at least 20000 nM. It also gave a Kd [32] of at least 20000 nM, a Kd [13, 40] of at least 20000 nM and a Kd [33] of at least 20000 nM. For the same sequence, the Kd [34] was at least 20000 nM, the Kd [35] was at least 20000 nM and the Kd ([10]; source organism: Taterapox virus) was at least 20000 nM.
VLFKTESGF showed a Kd [8, 41] of 11.8 nM, a Kd [36] of 47 nM and a Kd [30, 41] of at least 20000 nM.
